From US20140010832A1

How the values were obtained:
Assay in all cases: ELISA; cytokine coated, ECM protein 0.02 to 320 nM, KD by non-linear fit
Vitronectin = target: Vitronectin
Fibrinogen = target: Fibrinogen
Fibronectin = target: Fibronectin
Tenascin C = target: Tenascin C
Osteopontin = target: Osteopontin

Chain of Tenascin C (P24821 23-2201): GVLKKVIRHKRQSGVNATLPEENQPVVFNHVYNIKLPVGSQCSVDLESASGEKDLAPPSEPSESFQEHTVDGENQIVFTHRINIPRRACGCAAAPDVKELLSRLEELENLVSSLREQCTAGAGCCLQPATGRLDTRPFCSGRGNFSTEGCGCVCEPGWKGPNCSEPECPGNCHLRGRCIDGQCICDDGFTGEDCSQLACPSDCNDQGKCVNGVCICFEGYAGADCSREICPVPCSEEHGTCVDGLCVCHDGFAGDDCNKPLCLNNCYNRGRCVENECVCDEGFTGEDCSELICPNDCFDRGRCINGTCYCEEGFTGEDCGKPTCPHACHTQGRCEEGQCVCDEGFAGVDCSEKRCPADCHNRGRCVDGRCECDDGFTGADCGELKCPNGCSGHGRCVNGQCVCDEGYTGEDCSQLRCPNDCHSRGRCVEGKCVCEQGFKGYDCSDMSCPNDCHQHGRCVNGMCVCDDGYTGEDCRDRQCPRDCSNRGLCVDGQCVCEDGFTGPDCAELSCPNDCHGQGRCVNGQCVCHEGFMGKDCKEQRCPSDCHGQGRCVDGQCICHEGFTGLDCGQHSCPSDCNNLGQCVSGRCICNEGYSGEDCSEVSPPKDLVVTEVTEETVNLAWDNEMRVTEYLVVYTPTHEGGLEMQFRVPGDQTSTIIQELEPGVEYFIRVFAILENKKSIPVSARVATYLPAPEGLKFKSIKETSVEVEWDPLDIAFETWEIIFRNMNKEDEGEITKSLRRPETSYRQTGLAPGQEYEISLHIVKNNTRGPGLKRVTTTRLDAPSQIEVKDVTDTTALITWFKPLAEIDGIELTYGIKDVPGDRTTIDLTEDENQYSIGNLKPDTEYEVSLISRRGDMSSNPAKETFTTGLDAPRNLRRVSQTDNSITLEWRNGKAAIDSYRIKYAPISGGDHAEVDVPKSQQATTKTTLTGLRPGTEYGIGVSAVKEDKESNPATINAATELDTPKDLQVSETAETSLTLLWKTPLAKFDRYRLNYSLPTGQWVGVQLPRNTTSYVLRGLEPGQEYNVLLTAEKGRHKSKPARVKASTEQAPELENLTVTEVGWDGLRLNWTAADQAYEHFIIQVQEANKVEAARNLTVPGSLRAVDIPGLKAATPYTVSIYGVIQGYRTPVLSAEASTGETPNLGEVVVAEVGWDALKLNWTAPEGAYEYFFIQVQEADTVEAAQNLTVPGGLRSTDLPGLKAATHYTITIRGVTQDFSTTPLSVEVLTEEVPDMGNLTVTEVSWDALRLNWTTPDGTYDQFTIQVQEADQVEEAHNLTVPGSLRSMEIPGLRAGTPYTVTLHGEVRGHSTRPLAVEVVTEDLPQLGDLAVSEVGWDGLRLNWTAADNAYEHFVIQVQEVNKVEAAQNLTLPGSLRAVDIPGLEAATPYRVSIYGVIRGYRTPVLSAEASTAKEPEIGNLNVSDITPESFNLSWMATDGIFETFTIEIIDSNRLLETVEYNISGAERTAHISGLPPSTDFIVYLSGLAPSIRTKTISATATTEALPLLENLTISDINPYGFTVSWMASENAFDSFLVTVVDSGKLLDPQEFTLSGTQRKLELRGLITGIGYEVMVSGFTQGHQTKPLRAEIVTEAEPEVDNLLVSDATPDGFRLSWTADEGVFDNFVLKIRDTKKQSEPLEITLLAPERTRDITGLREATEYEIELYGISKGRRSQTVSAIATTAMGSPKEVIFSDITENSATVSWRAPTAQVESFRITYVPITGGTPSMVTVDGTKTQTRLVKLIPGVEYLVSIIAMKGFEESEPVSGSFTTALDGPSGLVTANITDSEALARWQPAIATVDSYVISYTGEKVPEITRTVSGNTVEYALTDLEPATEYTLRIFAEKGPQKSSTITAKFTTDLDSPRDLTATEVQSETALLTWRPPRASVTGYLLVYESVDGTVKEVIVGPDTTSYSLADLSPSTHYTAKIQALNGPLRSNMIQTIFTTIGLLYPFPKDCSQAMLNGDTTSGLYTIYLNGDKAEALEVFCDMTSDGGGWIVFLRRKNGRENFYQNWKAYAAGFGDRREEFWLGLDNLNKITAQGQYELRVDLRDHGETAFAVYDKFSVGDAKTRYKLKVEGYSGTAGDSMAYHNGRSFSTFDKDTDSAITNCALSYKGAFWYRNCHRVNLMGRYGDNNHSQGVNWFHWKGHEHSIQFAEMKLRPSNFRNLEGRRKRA
Chain of Vitronectin (P04004 20-478): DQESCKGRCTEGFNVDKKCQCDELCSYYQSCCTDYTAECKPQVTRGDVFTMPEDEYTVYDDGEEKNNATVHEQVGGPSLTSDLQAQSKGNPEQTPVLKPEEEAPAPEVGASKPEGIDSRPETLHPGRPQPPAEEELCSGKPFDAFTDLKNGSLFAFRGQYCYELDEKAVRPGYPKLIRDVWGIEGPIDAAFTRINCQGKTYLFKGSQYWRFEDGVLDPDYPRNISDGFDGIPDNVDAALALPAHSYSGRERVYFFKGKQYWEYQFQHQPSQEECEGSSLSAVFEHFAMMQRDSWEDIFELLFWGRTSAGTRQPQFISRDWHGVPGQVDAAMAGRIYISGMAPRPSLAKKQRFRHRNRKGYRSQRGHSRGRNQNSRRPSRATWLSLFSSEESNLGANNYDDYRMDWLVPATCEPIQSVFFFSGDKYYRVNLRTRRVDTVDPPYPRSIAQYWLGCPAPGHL
Chain of Fibronectin (P02751 32-2477): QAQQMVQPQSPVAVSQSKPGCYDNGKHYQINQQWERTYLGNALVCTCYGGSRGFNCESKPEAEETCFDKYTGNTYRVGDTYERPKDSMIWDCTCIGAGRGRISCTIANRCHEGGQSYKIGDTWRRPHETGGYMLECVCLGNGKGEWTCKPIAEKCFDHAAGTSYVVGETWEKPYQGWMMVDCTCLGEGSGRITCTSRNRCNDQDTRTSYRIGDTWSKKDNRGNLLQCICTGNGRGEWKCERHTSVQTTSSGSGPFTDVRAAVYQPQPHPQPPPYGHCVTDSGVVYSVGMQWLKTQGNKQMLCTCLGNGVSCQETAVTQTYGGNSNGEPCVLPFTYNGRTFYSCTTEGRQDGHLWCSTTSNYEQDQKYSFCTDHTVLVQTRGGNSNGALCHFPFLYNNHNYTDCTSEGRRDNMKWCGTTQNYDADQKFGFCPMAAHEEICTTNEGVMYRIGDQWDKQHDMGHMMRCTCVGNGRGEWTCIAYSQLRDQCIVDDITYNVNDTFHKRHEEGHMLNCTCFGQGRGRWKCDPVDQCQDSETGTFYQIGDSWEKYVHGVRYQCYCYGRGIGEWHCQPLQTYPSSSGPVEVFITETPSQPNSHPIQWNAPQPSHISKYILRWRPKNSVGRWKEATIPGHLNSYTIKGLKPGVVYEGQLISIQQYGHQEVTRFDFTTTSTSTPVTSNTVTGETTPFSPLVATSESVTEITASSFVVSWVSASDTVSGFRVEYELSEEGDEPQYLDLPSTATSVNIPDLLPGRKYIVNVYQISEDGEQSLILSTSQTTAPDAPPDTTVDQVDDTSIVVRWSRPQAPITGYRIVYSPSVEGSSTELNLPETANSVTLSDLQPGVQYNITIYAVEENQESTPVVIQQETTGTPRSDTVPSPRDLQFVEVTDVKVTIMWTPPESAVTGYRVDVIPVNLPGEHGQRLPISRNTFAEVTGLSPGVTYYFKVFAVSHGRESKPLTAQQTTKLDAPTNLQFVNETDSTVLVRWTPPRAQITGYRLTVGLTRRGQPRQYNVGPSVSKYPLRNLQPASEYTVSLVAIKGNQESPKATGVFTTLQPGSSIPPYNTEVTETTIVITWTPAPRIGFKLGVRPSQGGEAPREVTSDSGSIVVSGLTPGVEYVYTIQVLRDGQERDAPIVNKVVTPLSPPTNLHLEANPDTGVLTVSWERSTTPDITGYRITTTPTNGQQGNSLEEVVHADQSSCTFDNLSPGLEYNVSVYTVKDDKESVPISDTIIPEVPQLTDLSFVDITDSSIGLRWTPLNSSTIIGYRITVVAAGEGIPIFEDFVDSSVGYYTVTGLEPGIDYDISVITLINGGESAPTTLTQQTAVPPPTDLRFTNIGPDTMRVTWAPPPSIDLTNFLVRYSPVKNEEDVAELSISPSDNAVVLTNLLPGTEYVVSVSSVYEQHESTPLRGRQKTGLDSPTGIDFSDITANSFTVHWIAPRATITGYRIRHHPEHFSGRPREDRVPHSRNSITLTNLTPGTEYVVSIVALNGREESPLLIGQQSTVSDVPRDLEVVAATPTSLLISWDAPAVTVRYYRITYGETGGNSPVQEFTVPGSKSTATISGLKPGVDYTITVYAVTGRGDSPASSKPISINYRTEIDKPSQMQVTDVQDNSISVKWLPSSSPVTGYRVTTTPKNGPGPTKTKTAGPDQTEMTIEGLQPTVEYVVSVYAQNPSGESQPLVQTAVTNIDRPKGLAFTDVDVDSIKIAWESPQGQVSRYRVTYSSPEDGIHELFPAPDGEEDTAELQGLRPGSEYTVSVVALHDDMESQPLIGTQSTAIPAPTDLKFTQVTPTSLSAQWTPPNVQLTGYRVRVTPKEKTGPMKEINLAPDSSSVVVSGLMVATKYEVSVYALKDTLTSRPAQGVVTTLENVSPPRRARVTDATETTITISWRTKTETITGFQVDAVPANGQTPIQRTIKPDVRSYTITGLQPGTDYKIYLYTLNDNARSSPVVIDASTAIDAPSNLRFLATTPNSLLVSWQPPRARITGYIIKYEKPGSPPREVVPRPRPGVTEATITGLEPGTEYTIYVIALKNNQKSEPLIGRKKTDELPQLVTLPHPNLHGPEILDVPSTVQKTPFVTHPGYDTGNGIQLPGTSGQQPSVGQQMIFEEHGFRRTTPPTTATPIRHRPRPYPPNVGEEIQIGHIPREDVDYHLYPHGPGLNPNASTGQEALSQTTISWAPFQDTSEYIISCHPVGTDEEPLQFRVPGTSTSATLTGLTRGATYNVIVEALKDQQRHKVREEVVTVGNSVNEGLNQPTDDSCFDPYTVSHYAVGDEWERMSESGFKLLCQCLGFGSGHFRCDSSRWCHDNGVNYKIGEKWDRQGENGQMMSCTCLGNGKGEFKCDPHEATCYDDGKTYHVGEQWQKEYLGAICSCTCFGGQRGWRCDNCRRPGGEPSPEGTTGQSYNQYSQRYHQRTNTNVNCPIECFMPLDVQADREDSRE

Kd (Vitronectin)	Kd (Fibrinogen)	Kd (Fibronectin)	Kd (Tenascin C)	Kd (Osteopontin)	Binder
94.7 nM	47.1 nM	19.2 nM	25.5 nM		human BMP-2 (ligand) QAKHKQRKRLKSSCKRHPLYVDFSDVGWNDWIVAPPGYHAFYCHGECPFPLADHLNSTNHAIVQTLVNSVNSKIPKACCVPTELSAISMLYLDENEKVVLKNYQDMVVEGCGCR
2.4 nM	2 nM	5.2 nM	6.9 nM	11.2 nM	human BMP-2-PlGF2123-144* (ligand) QAKHKQRKRLKSSCKRHPLYVDFSDVGWNDWIVAPPGYHAFYCHGECPFPLADHLNSTNHAIVQTLVNSVNSKIPKACCVPTELSAISMLYLDENEKVVLKNYQDMVVEGCGCRRRPKGRGKRRREKQRPTDSHL
1.2 nM	3.2 nM	4.5 nM	6.3 nM	3.3 nM	human PDGF-BB-PlGF2123-144 (ligand) SLGSLTIAEPAMIAECKTRTEVFEISRRLIDRTNANFLVWPPCVEVQRCSGCCNNRNVQCRPTQVQLRPVQVRKIEIVRKKPIFKKATVTLEDHLACKCETVAAARPVTRRRPKGRGKRRREKQRPTDCHL
